Measurements published in US20110027820A1 (GEORGIA TECH RESEARCH, published 2011).

Molecular target: T1, Gal4 DNA binding domain (DBD) fused to the RXR ligand binding domain (GBD:RXR) (yeast; human, UniProt P04386 1-147; P19793 203-462, limits assumed)
T1 construct: Expressed inside yeast (PJ69-4A or MaV103) from plasmid pGBDRXR; The order DBD then LBD follows the name GBD:RXR; also called wild-type GBD:RXR; product of pGBDRXR
Test: yeast two-hybrid type growth selection (chemical complementation), PJ69-4A on SC-Ade plates with 10^-5 M 9cRA
Method: The same colony was used for streaking on all the plates, ending with a SC plate to confirm efficient transfer of the cells to each plate. Both selective and non-selective plates were incubated at 30° C. for two days. Each set of genetic selection plates was replicated at least once.

B1: Gal4 activation domain (GAD) without a coactivator domain (other, yeast, UniProt P04386 768-881, looked up)
chain: ANFNQSGNIADSSLSFTFTNSSNGPNLITTQTNSQALSQPIASSNVHDNFMNNEITASKIDDGNNSKPLSPGWTDQTAYNAFGITTGMFNTTTMDDVYNYLFDDEDTPPNPKKE
notes: range 768-881; Control expressed from pGAD10; also called Gal4 AD only; product of pGAD10
binding result: no binding
